Series [1] has as its system HeLa Kyoto. The series is described as follows: solubility in G1/S (NP-40 vs SDS abundance) (log2 ratio); higher = more soluble. The settings on record: cell cycle stage: G1/S.
Series [2] deals with HeLa Kyoto. The experiment in a line: solubility change mitosis vs G1/S (difference of NP-40 vs SDS log2 ratios) (log2 ratio difference); higher = more soluble in mitosis.
The subject of series [3] is HeLa Kyoto. The experiment in a line: melting temperature (median over replicates), in situ; higher = more thermally stable.
Series [4] has as its system HeLa Kyoto. The experiment in a line: thermal stability score vs G1/S (z-score of summed log2 fold changes over temperatures); higher = more thermally stable than in G1/S.
Setting [5] is: cell cycle stage: early G1 (4.5 h after nocodazole release).

The results in this text go back to the supplement of paper PMC5998384.
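For melting temperature (median over replicates), in situ in this document: HeLa Kyoto cells synchronized by double thymidine or nocodazole block, proteins quantified by TMT10plex mass spectrometry, three independent biological replicates.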
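For solubility change mitosis vs G1/S (difference of NP-40 vs SDS log2 ratios) in this document: synchronized HeLa Kyoto cells (double thymidine block for G1/S, nocodazole release for mitosis), protein amounts in NP-40 versus SDS lysates quantified by mass spectrometry, three biological replicates.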
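For solubility in G1/S (NP-40 vs SDS abundance) in this document: HeLa Kyoto cells arrested at G1/S by double thymidine block, proteins quantified by TMT10plex mass spectrometry in mild NP-40 versus SDS extracts, three biological replicates.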
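For thermal stability score vs G1/S (z-score of summed log2 fold changes over temperatures) in this document: synchronized HeLa Kyoto cells, proteins quantified by TMT10plex mass spectrometry, three biological replicates, mitosis taken 0.5 h after nocodazole release, G1/S directly after double thymidine block.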

As to “MKSYTPYFILLWSAVGIAKAAKIIIVPPIMFESHMYIFKTLASALHERGHHTVFLLSEGRDIAPSNHYSLQRYPGIFNSTTSDAFLQSKMRNIFSGRLTAIELFDILDHYTKNCDLMVGNHALIQGLKKEKFDLLLVDPNDMCGFVIAHLLGVKYAVFSTGLWYPAEVGAPAPLAYVPEFNSLLTDRMNLLQRMKNTGVYLISRLGVSFLVLPKYERIMQKYNLLPEKSMYDLVHGSSLWMLCTDVALEFPRPTLPNVVYVGGILTKPASPLPEDLQRWVNGANEHGFVLVSFGAGVKYLSEDIANKLAGALGRLPQKVIWRFSGPKPKNLGNNTKLIEWLPQNDLLGHSKIKAFLSHGGLNSIFETIYHGVPVVGIPLFGDHYDTMTRVQAKGMGILLEWKTVTEKELYEALVKVINNPSYRQRAQKLSEIHKDQPGHPVNRTIYWIDYIIRHNGAHHLRAAVHQISFCQYFLLDIAFVLLLGAALLYFLLSWVTKFIYRKIKSLWSRNKHSTVNGHYHNGILNGKYKRNGHIKHEKKVK [UGT8]”, the “solubility in G1/S (log2)” value in the series on HeLa Kyoto [1] is -0.021. Besides, in the series on HeLa Kyoto [2], the “solubility change mitosis (log2)” value is -0.0716. The melting temperature in the series on HeLa Kyoto [3] (cell cycle stage: mitosis) is 53.8 °C. The results for the thermal stability score with HeLa Kyoto [4] (setting [5]) and in the series on HeLa Kyoto [4] (cell cycle stage: mitosis) were 0.353 and -0.0434, respectively.

Take “MEGSLEREAPAGALAAVLKHSSTLPPESTQVRGYDFNRGVNYRALLEAFGTTGFQATNFGRAVQQVNAMIEKKLEPLSQDEDQHADLTQSRRPLTSCTIFLGYTSNLISSGIRETIRYLVQHNMVDVLVTTAGGVEEDLIKCLAPTYLGEFSLRGKELRENGINRIGNLLVPNENYCKFEDWLMPILDQMVMEQNTEGVKWTPSKMIARLGKEINNPESVYYWAQKNHIPVFSPALTDGSLGDMIFFHSYKNPGLVLDIVEDLRLINTQAIFAKCTGMIILGGGVVKHHIANANLMRNGADYAVYINTAQEFDGSDSGARPDEAVSWGKIRVDAQPVKVYADASLVFPLLVAETFAQKMDAFMHEKNED [DHPS]”: the “solubility in G1/S (log2)” value with HeLa Kyoto [1] is 0.164. The “solubility change mitosis (log2)” value with HeLa Kyoto [2] was -0.0341. Also, the melting temperature came to 56.2 °C in the series with HeLa Kyoto [3] (cell cycle stage: G1/S) and 56.8 °C in the series on HeLa Kyoto [3] (cell cycle stage: mitosis). Further, the thermal stability score was -0.0223 with HeLa Kyoto [4] (setting [5]) and -1.85 in the series on HeLa Kyoto [4] (cell cycle stage: mitosis).

For the sequence “MDSAGQDINLNSPNKGLLSDSMTDVPVDTGVAARTPAVEGLTEAEEEELRAELTKVEEEIVTLRQVLAAKERHCGELKRRLGLSTLGELKQNLSRSWHDVQVSSAYVKTSEKLGEWNEKVTQSDLYKKTQETLSQAGQKTSAALSTVGSAISRKLGDMRNSATFKSFEDRVGTIKSKVVGDRENGSDNLPSSAGSGDKPLSDPAPF [TPD52L2]”, the “solubility in G1/S (log2)” value with HeLa Kyoto [1] amounted to 0.127. Besides, the “solubility change mitosis (log2)” value with HeLa Kyoto [2] is 0.6. In addition, the melting temperature in the series with HeLa Kyoto [3] (cell cycle stage: G1/S) turned out to be 53 °C; with HeLa Kyoto [3] (cell cycle stage: mitosis), 52.7 °C. Besides, the thermal stability score with HeLa Kyoto [4] (setting [5]) was -4.67; in the series on HeLa Kyoto [4] (cell cycle stage: mitosis) it was -5.07.

With “MADGQVAELLLRRLEASDGGLDSAELAAELGMEHQAVVGAVKSLQALGEVIEAELRSTKHWELTAEGEEIAREGSHEARVFRSIPPEGLAQSELMRLPSGKVGFSKAMSNKWIRVDKSAADGPRVFRVVDSMEDEVQRRLQLVRGGQAEKLGEKERSELRKRKLLAEVTLKTYWVSKGSAFSTSISKQETELSPEMISSGSWRDRPFKPYNFLAHGVLPDSGHLHPLLKVRSQFRQIFLEMGFTEMPTDNFIESSFWNFDALFQPQQHPARDQHDTFFLRDPAEALQLPMDYVQRVKRTHSQGGYGSQGYKYNWKLDEARKNLLRTHTTSASARALYRLAQKKPFTPVKYFSIDRVFRNETLDATHLAEFHQIEGVVADHGLTLGHLMGVLREFFTKLGITQLRFKPAYNPYTEPSMEVFSYHQGLKKWVEVGNSGVFRPEMLLPMGLPENVSVIAWGLSLERPTMIKYGINNIRELVGHKVNLQMVYDSPLCRLDAEPRPPPTQEAA [FARSA]”, the “solubility in G1/S (log2)” value in the series with HeLa Kyoto [1] was 0.0439. Moreover, the “solubility change mitosis (log2)” value in the series on HeLa Kyoto [2] is -0.0944. Besides, the melting temperature in the series on HeLa Kyoto [3] (cell cycle stage: G1/S) is 50.2 °C; in the series with HeLa Kyoto [3] (cell cycle stage: mitosis) it was 50.4 °C. Moreover, the thermal stability score with HeLa Kyoto [4] (setting [5]) was determined as 0.422; with HeLa Kyoto [4] (cell cycle stage: mitosis) it was 0.356.

Regarding “MTILPKKKPPPPDADPANEPPPPGPMPPAPRRGGGVGVGGGGTGVGGGDRDRDSGVVGARPRASPPPQGPLPGPPGALHRWALAVPPGAVAGPRPQQASPPPCGGPGGPGGGPGDALGAAAAGVGAAGVVVGVGGAVGVGGCCSGPGHSKRRRQAPGVGAVGGGSPEREEVGAGYNSEDEYEAAAARIEAMDPATVEQQEHWFEKALRDKKGFIIKQMKEDGACLFRAVADQVYGDQDMHEVVRKHCMDYLMKNADYFSNYVTEDFTTYINRKRKNNCHGNHIEMQAMAEMYNRPVEVYQYSTGTSAVEPINTFHGIHQNEDEPIRVSYHRNIHYNSVVNPNKATIGVGLGLPSFKPGFAEQSLMKNAIKTSEESWIEQQMLEDKKRATDWEATNEAIEEQVARESYLQWLRDQEKQARQVRGPSQPRKASATCSSATAAASSGLEEWTSRSPRQRSSASSPEHPELHAELGMKPPSPGTVLALAKPPSPCAPGTSSQFSAGADRATSPLVSLYPALECRALIQQMSPSAFGLNDWDDDEILASVLAVSQQEYLDSMKKNKVHRDPPPDKS [OTUD5]”, the “solubility in G1/S (log2)” value with HeLa Kyoto [1] is 0.259. The “solubility change mitosis (log2)” value in the series on HeLa Kyoto [2] stood at 0.178. Besides, the melting temperature in the series with HeLa Kyoto [3] (cell cycle stage: G1/S) came to 51.6 °C; in the series on HeLa Kyoto [3] (cell cycle stage: mitosis), 52.4 °C. In addition, the values for the thermal stability score in the series with HeLa Kyoto [4] (setting [5]) and with HeLa Kyoto [4] (cell cycle stage: mitosis) were -1.93 and 0.592, respectively.

Regarding “MGCWGRNRGRLLCMLALTFMFMVLEVVVSRVTSSLAMLSDSFHMLSDVLALVVALVAERFARRTHATQKNTFGWIRAEVMGALVNAIFLTGLCFAILLEAIERFIEPHEMQQPLVVLGVGVAGLLVNVLGLCLFHHHSGFSQDSGHGHSHGGHGHGHGLPKGPRVKSTRPGSSDINVAPGEQGPDQEETNTLVANTSNSNGLKLDPADPENPRSGDTVEVQVNGNLVREPDHMELEEDRAGQLNMRGVFLHVLGDALGSVIVVVNALVFYFSWKGCSEGDFCVNPCFPDPCKAFVEIINSTHASVYEAGPCWVLYLDPTLCVVMVCILLYTTYPLLKESALILLQTVPKQIDIRNLIKELRNVEGVEEVHELHVWQLAGSRIIATAHIKCEDPTSYMEVAKTIKDVFHNHGIHATTIQPEFASVGSKSSVVPCELACRTQCALKQCCGTLPQAPSGKDAEKTPAVSISCLELSNNLEKKPRRTKAENIPAVVIEIKNMPNKQPESSL [SLC30A1]”, the “solubility in G1/S (log2)” value in the series on HeLa Kyoto [1] was -0.0235. Besides, the “solubility change mitosis (log2)” value in the series on HeLa Kyoto [2] was -0.0896. The figures for the melting temperature with HeLa Kyoto [3] (cell cycle stage: G1/S) and in the series with HeLa Kyoto [3] (cell cycle stage: mitosis) were 58.4 °C and 59.4 °C, respectively. In addition, the thermal stability score is -2.04 with HeLa Kyoto [4] (setting [5]) and -1.95 in the series on HeLa Kyoto [4] (cell cycle stage: mitosis).

As for “MSRPPPTGKMPGAPETAPGDGAGASRQRKLEALIRDPRSPINVESLLDGLNSLVLDLDFPALRKNKNIDNFLNRYEKIVKKIRGLQMKAEDYDVVKVIGRGAFGEVQLVRHKASQKVYAMKLLSKFEMIKRSDSAFFWEERDIMAFANSPWVVQLFYAFQDDRYLYMVMEYMPGGDLVNLMSNYDVPEKWAKFYTAEVVLALDAIHSMGLIHRDVKPDNMLLDKHGHLKLADFGTCMKMDETGMVHCDTAVGTPDYISPEVLKSQGGDGFYGRECDWWSVGVFLYEMLVGDTPFYADSLVGTYSKIMDHKNSLCFPEDAEISKHAKNLICAFLTDREVRLGRNGVEEIRQHPFFKNDQWHWDNIRETAAPVVPELSSDIDSSNFDDIEDDKGDVETFPIPKAFVGNQLPFIGFTYYRENLLLSDSPSCRETDSIQSRKNEESQEIQKKLYTLEEHLSNEMQAKEELEQKCKSVNTRLEKTAKELEEEITLRKSVESALRQLEREKALLQHKNAEYQRKADHEADKKRNLENDVNSLKDQLEDLKKRNQNSQISTEKVNQLQRQLDETNALLRTESDTAARLRKTQAESSKQIQQLESNNRDLQDKNCLLETAKLKLEKEFINLQSALESERRDRTHGSEIINDLQGRICGLEEDLKNGKILLAKVELEKRQLQERFTDLEKEKSNMEIDMTYQLKVIQQSLEQEEAEHKATKARLADKNKIYESIEEAKSEAMKEMEKKLLEERTLKQKVENLLLEAEKRCSLLDCDLKQSQQKINELLKQKDVLNEDVRNLTLKIEQETQKRCLTQNDLKMQTQQVNTLKMSEKQLKQENNHLMEMKMNLEKQNAELRKERQDADGQMKELQDQLEAEQYFSTLYKTQVRELKEECEEKTKLGKELQQKKQELQDERDSLAAQLEITLTKADSEQLARSIAEEQYSDLEKEKIMKELEIKEMMARHKQELTEKDATIASLEETNRTLTSDVANLANEKEELNNKLKDVQEQLSRLKDEEISAAAIKAQFEKQLLTERTLKTQAVNKLAEIMNRKEPVKRGNDTDVRRKEKENRKLHMELKSEREKLTQQMIKYQKELNEMQAQIAEESQIRIELQMTLDSKDSDIEQLRSQLQALHIGLDSSSIGSGPGDAEADDGFPESRLEGWLSLPVRNNTKKFGWVKKYVIVSSKKILFYDSEQDKEQSNPYMVLDIDKLFHVRPVTQTDVYRADAKEIPRIFQILYANEGESKKEQEFPVEPVGEKSNYICHKGHEFIPTLYHFPTNCEACMKPLWHMFKPPPALECRRCHIKCHKDHMDKKEEIIAPCKVYYDISTAKNLLLLANSTEEQQKWVSRLVKKIPKKPPAPDPFARSSPRTSMKIQQNQSIRRPSRQLAPNKPS [ROCK2]”, in the series on HeLa Kyoto [1], the “solubility in G1/S (log2)” value turned out to be 0.0267. Moreover, the “solubility change mitosis (log2)” value in the series with HeLa Kyoto [2] was -0.132. In addition, the melting temperature was 49.8 °C in the series on HeLa Kyoto [3] (cell cycle stage: G1/S) and 49.4 °C in the series with HeLa Kyoto [3] (cell cycle stage: mitosis). The thermal stability score amounted to 0.406 in the series with HeLa Kyoto [4] (setting [5]) and 1.46 in the series with HeLa Kyoto [4] (cell cycle stage: mitosis).
